IC50 and Kd data for nine sequences are collected here from the Immune Epitope Database (IEDB).

Where only a bound is given, the exact number is not on record here.

The target of test [1] is HLA-A*11:01. The experiment in a line: IEDB peptide-MHC binding, purified MHC/competitive/fluorescence; ≥ and ≤ were set here for values at or beyond the usual limits of such assays. The settings on record: source organism: Zaire ebolavirus.
The target of test [2] is HLA-B*08:01. Described as above. Particulars: source organism: Zaire ebolavirus.
The target in test [3] is HLA-A*11:01. The experiment in a line: IEDB peptide-MHC binding, purified MHC/direct/fluorescence; filed as Kd, often an IC50 or EC50 that approximates it; ≥ and ≤ were set here for values at or beyond the usual limits of such assays.
The next test deals with HLA-A*31:01. Described as above.
Another test addresses HLA-B*15:09. The description is as above. Particulars: source organism: Influenza A virus(A/swine/Shandong/fNY/2003(H9N2)).
The target in test [4] is HLA-B*08:01. Described as above.
A further test addresses HLA-A*69:01. Described as above.
The next test deals with HLA-B*27:05. Described as above.
The target of the next test is HLA-B*40:01. The description is as above.
A further test addresses HLA-A*26:01. The description is as above.
The target in a further test is HLA-A*03:01. The description is as above.
For the next test, the target named is HLA-B*15:01. The description is as above.
Another test concerns the target HLA-B*58:01. The test is described as above.
In the next test the target is HLA-A*24:02. The description is as above.
A further test deals with HLA-A*01:01. The test is described as above.
The next test addresses HLA-B*07:02. The description is as above.
In a further test the target is HLA-B*46:01. Described as above.
In test [5] the target is HLA-A*02:01. Described as above.
Test [6] concerns the target HLA-A*02:01. The experiment in a line: IEDB peptide-MHC binding, purified MHC/competitive/fluorescence; ≥ and ≤ were set here for values at or beyond the usual limits of such assays. Particulars: source organism: Zaire ebolavirus.
For another test, the target named is HLA-A*68:02. Nature of the test: IEDB peptide-MHC binding, purified MHC/direct/fluorescence; filed as Kd, often an IC50 or EC50 that approximates it; ≥ and ≤ were set here for values at or beyond the usual limits of such assays. Particulars: source organism: Influenza A virus.
The next test addresses HLA-A*24:03. The description is as above.
The target in another test is HLA-A*23:01. The description is as above.
In another test the target is HLA-B*57:01. Described as above. The settings on record: source organism: Influenza A virus.
The next test has as its target HLA-B*44:02. The test is described as above.
The target of another test is HLA-B*15:17. Nature of the test: IEDB peptide-MHC binding, purified MHC/competitive/fluorescence; filed as Kd, often an IC50 or EC50 that approximates it; ≥ and ≤ were set here for values at or beyond the usual limits of such assays. The settings on record: source organism: Influenza A virus (A/ruddy turnstone/NJ/60/1985(N9)).
The next test addresses HLA-A*26:02. The description is as above. The settings on record: source organism: Influenza A virus (A/ruddy turnstone/NJ/60/1985(N9)).
For test [7], the target named is HLA-B*18:01. The test is described as above. Particulars: source organism: Influenza A virus (A/ruddy turnstone/NJ/60/1985(N9)).
A further test concerns the target HLA-B*08:02. Nature of the test: IEDB peptide-MHC binding, purified MHC/direct/fluorescence; filed as Kd, often an IC50 or EC50 that approximates it; ≥ and ≤ were set here for values at or beyond the usual limits of such assays.
The next test addresses HLA-B*35:01. The description is as above. The settings on record: source organism: Vibrio cholerae.
The target of test [8] is HLA-B*18:01. The test is described as above. Particulars: source organism: Influenza A virus (A/Viet Nam/HN/2004(H5N1)).
[9] abbreviates: source organism: Influenza A virus (A/equine/New York/1/1999(H3N8)).
Setting [10] is: source organism: Influenza A virus (A/Puerto Rico/8/34/Mount Sinai(H1N1)).
Setting [11] is: source organism: Influenza A virus.
Where [12] appears, read: source organism: Influenza A virus (A/tiger/Thailand/CU-LV/2004(H5N1)).
[13] abbreviates: source organism: H9N2 subtype Influenza A virus (A/swine/Korea/S81/2004(H9N2)).
Setting [14] is: source organism: Vibrio cholerae.
[15] abbreviates: source organism: Influenza A virus (A/Viet Nam/HN/2004(H5N1)).
Where [16] appears, read: source organism: Influenza A virus(A/swine/Henan/3/2004(H9N2)).

A word on the IC50: it is the concentration at which inhibition is half-maximal. Higher therefore signals weaker potency in that assay. EVKKRDGVK: the IC50 was 66.4 µM with HLA-A*11:01 [1] and at least 211 µM with HLA-B*08:01 [2].
For orientation: Kd means the constant that tells how readily two partners part at equilibrium. High values mean weaker binding, low ones tighter binding. As for RELVRKTRF, the Kd with HLA-A*11:01 [3] (setting [9]), with HLA-A*31:01 (setting [9]), with HLA-B*15:09, with HLA-B*08:01 [4] (setting [9]), in the test with HLA-A*69:01 (setting [9]) and with HLA-B*27:05 (setting [9]) was at least 20 µM throughout. The dissociation constant Kd with HLA-B*40:01 (setting [10]) was 0.35 µM; with HLA-A*26:01 (source organism: Influenza A virus(A/swine/Shandong/fNY/2003(H9N2))) it was at least 20 µM; with HLA-A*03:01 (setting [9]), at least 20 µM; in the test with HLA-B*15:01 (setting [10]), 1.58 µM; in the test with HLA-B*58:01 (setting [9]) it was at least 20 µM; in the test with HLA-A*24:02 (setting [9]), at least 20 µM. Also, the Kd with HLA-A*01:01 (setting [9]), with HLA-B*07:02 (setting [9]), in the test with HLA-B*46:01 (setting [9]) and with HLA-A*02:01 [5] (setting [9]) was at least 20 µM in each case.
For the sequence HILQKTERG, the IC50 with HLA-B*08:01 [2] was at least 365 µM; with HLA-A*02:01 [6], at least 99.6 µM.
As for DWSGYSGSF, the Kd in the test with HLA-A*11:01 [3] (setting [11]), with HLA-A*31:01 (setting [11]), with HLA-B*08:01 [4] (setting [11]), with HLA-A*68:02, with HLA-A*69:01 (setting [11]) and in the test with HLA-B*27:05 (setting [11]) was at least 20 µM throughout. Besides, the Kd is 0.072 µM with HLA-A*24:03 (setting [12]); at least 20 µM with HLA-B*40:01 (setting [11]); at least 20 µM in the test with HLA-A*26:01 (setting [12]); 0.175 µM with HLA-A*23:01 (setting [11]); at least 20 µM in the test with HLA-A*03:01 (setting [11]); at least 20 µM with HLA-B*57:01. The Kd in the test with HLA-B*44:02 (setting [11]) was at least 20 µM; with HLA-B*15:01 (setting [10]), at least 10 µM; in the test with HLA-B*58:01 (setting [11]) it was at least 20 µM; with HLA-A*24:02 (setting [11]) it was 0.0875 µM; with HLA-A*01:01 (setting [11]), at least 20 µM; with HLA-B*07:02 (setting [11]) it was at least 20 µM. Besides, the equilibrium dissociation constant (Kd) in the test with HLA-B*46:01 (setting [11]) was at least 20 µM; with HLA-A*02:01 [5] (setting [11]) it was at least 20 µM; with HLA-B*15:17, 1.24 µM; with HLA-A*26:02, 3.45 µM; with HLA-B*18:01 [7], at least 20 µM.
In the case of KAVRGDLNF, the dissociation constant (Kd) in the test with HLA-A*11:01 [3] (setting [13]), in the test with HLA-A*31:01 (setting [13]), with HLA-B*08:01 [4] (setting [13]), with HLA-A*69:01 (setting [13]), with HLA-B*27:05 (setting [13]) and with HLA-B*40:01 (setting [13]) was at least 20 µM each time. For the same sequence, the Kd was at least 20 µM with HLA-A*03:01 (setting [13]); at least 20 µM in the test with HLA-B*44:02 (setting [13]); 0.929 µM in the test with HLA-B*15:01 (setting [10]); 0.093 µM in the test with HLA-B*58:01 (setting [13]); at least 20 µM with HLA-A*24:02 (setting [13]); at least 20 µM with HLA-B*08:02 (source organism: Influenza A virus(A/swine/Shandong/fZC/2003(H9N2))). In addition, the Kd in the test with HLA-A*01:01 (setting [13]), with HLA-B*07:02 (setting [13]) and with HLA-A*02:01 [5] (setting [13]) was at least 20 µM in each case.
Turning to YHMMKDEPV, the concentration for half-maximal inhibition (IC50) is at least 178 µM with HLA-B*08:01 [2] and 42.3 µM with HLA-A*02:01 [6].
DTDISQLHH: the Kd with HLA-A*11:01 [3] (setting [14]), with HLA-A*31:01 (setting [14]), in the test with HLA-B*08:01 [4] (setting [14]), in the test with HLA-A*69:01 (setting [14]), in the test with HLA-B*27:05 (setting [14]) and with HLA-A*24:03 (setting [14]) was at least 20 µM each time. In addition, the Kd is 0.542 µM in the test with HLA-B*35:01; at least 20 µM with HLA-B*40:01 (setting [14]); at least 20 µM with HLA-A*26:01 (setting [14]); at least 20 µM in the test with HLA-A*03:01 (setting [14]); at least 20 µM with HLA-B*44:02 (setting [14]); at least 20 µM with HLA-B*15:01 (setting [14]). Also, the Kd with HLA-B*58:01 (setting [14]) is 2.68 µM; with HLA-A*01:01 (setting [14]), 0.358 µM; in the test with HLA-B*07:02 (setting [14]) it was at least 20 µM; with HLA-A*02:01 [5] (setting [14]), at least 20 µM.
As for RRVRDNMTK, the Kd is at least 20 µM in the test with HLA-A*11:01 [3] (setting [15]); at least 20 µM with HLA-B*08:01 [4] (setting [15]); at least 20 µM in the test with HLA-A*69:01 (setting [15]); 0.45 µM in the test with HLA-B*27:05 (setting [10]); at least 20 µM with HLA-B*40:01 (setting [15]); at least 20 µM with HLA-A*26:01 (setting [16]). The Kd with HLA-A*03:01 (setting [15]), in the test with HLA-B*44:02 (setting [15]), in the test with HLA-B*15:01 (setting [15]), with HLA-B*58:01 (setting [15]), with HLA-A*24:02 (setting [15]) and in the test with HLA-B*08:02 (setting [16]) was at least 20 µM in each case. The Kd with HLA-A*01:01 (setting [15]), with HLA-B*07:02 (setting [15]), with HLA-B*18:01 [8], in the test with HLA-B*46:01 (setting [15]) and in the test with HLA-A*02:01 [5] (setting [15]) was at least 20 µM in each case.
In the case of QYEKDPDEL, the results for the Kd in the test with HLA-A*24:03 (source organism: Amur virus), with HLA-A*23:01 (source organism: Amur virus) and with HLA-A*24:02 (source organism: Amur virus) were 13 µM, 11.5 µM and 4.65 µM, respectively.
